These results are taken from PMC6760453, “Conformational characterization of full-length X-chromosome-linked inhibitor of apoptosis protein (XIAP) through an integrated approach” (IUCrJ, 2019).

This data set concerns the molecule itself. Nature of the data set: EPR-DEER; Q-band (34 GHz) four-pulse DEER at 50 K on MTSL-labelled XIAP; dimer concentration 15 uM; 20 mM Tris pH 7.4.

B1: XIAP C202R1 (XIAP C12A, C213G, C351S labelled with MTSL nitroxide on Cys202) (natural protein, human, UniProt P98170 1-497, looked up)
chain: MTFNSFEGSKTAVPADINKEEEFVEEFNRLKTFANFPSGSPVSASTLARAGFLYTGEGDTVRCFSCHAAVDRWQYGDSAVGRHRKVSPNCRFINGFYLENSATQSTNSGIQNGQYKVENYLGSRDHFALDRPSETHADYLLRTGQVVDISDTIYPRNPAMYSEEARLKSFQNWPDYAHLTPRELASAGLYYTGIGDQVQCFCCGGKLKNWEPGDRAWSEHRRHFPNCFFVLGRNLNIRSESDAVSSDRNFPNSTNLPRNPSMADYEARIFTFGTWIYSVNKEQLARAGFYALGEGDKVKCFHCGGGLTDWKPSEDPWEQHAKWYPGCKYLLEQKGQEYINNIHLTHSLEESLVRTTEKTPSLTRRIDDTIFQNPMVQEAIRMGFSFKDIKKIMEEKIQISGSNYKSLEVLVADLVNAQKDSMQDESSQTSLQKEISTEEQLRRLQEEKLCKICMDRNIAIVFVPCGHLVTCKQCAEAVDKCPMCYTVITFKQKIFMS
modifications: MTSL nitroxide spin label on Cys202
notes: Mutations were introduced into the WT XIAP gene; also called XIAP C202-MTSL
Turning to B1, the binding result is recorded as “binds”.
